Data published in the supplement of paper PMC9170038.

Assays:
[1] = system: MS2 coat protein; test: apparent KD of MS2 coat protein, switch OFF state (with FMN for OFF switches, without FMN for ON switches); designed switch direction (-1 OFF switch, 1 ON switch): -1; higher = weaker reporter binding; conditions: FMN input: 0 or 200 uM; Eterna round: R93 (includes R88 designs)
How it was run: (§1)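 On-chip transcription from Illumina sequencing clusters produced the designed RNA switches. These were titrated with SNAP-549-labelled MS2 coat protein (twofold steps, 0.7 or 1.5 nM to 3 µM) in 100 mM Tris-HCl pH 7.5, 80 mM KCl, 4 mM MgCl2, with or without constant ligand. The apparent KD given is the per-design median of normalised cluster binding-curve fits.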

[2] = system: MS2 coat protein; test: apparent KD of MS2 coat protein, switch ON state; designed switch direction (-1 OFF switch, 1 ON switch): -1; higher = weaker reporter binding; conditions: FMN input: 0 or 200 uM; Eterna round: R93 (includes R88 designs)
How it was run: as §1

| Sequence | apparent KD of MS2 coat protein [1] [nM] | apparent KD of MS2 coat protein [2] [nM] |
| --- | --- | --- |
| AAAGAGCAAGGAUAUACAUGAGGAUCACCCAUGUAUGGAGAUACAAAACAAAAGAUCAGUAGAAGGUGCGGAUG [Rageleor] | 26.3 | 20.3 |
| AUGUAGGGAGGAUAUACAUAGAUACAGAUUCGUGUAGAACUACAUGAGGAUCACCCAUGUAGAAGGCCCUAAAA [Mat - Same state - Mayanna Mod - D124] | 43.1 | 20.1 |
| UUUAUGUGAGGAUAUACGAAUAGUAAGUAAGUAUUACAGACGUAGAAGGCACAUGAGGAUCACCCAUGUGAAUA [JR_Exc004_Sub307] | 58.8 | 32.7 |
| AGCUAGUCAGGAUAUACGAACAUGUCAAAAGACGUGAGAGAACAUGAGGAUCACCCAUGUAGAAGGGACUAGCA [Mat - Exclusion 2 - JL-Eli mod - D47] | 13.1 | 18.7 |
| AAGAACUGAGGAUAUACAAAAUAAAAGAAAAGAAAGAAAGAACAUGAGGAUCACCCAUGUAGAAGGCAGAAGAA [Sekhemre Khutawy Sobekhotep I] | 19.7 | 27.6 |
| AACAGUACAGGAUAUACAUGAGGAUCACCCAUGUGAGACUUAAAAGGCGUACCUAAAAGUAGAAGGGUACUGGA [JL Maslow Revisted mod 21] | 176 | 56.1 |
| ACUUGACAUGAGGAUCACCCAUGUCAGGAUAUAGUAGGACAAAUAAAUAAAAGUUCUACUAGAAGGGAUAUGGG [Design 20: G-U+ 4] | 36.5 | 20.7 |
| GAAAAGUCAGGAUAUGUACAAAAUAAAAUAAAAAUAAAAGUACAGAAGGGACAUGAGGAUCACCCAUGUAAAAA [Mat - Exclusion 4 - Mayanna - D119] | 49.8 | 47.3 |
| AAAAAACAUGAGGAUCACCCAUGUAAGGAUAUCUAAAAUAAAAGAAAAAUAAAGAAAAGGAGAAGGUAUAUGGA [JL wbt mod 24] | 37.3 | 27.1 |
| AAAAAGUCAGGAUAUGCGAAGGCGUCUGAUAGACGAGGCUAGCAGAAGGGACAUGAGGAUCACCCAUGUGAAAA [Mat - Mod of Nando 64% 1] | 143 | 57.9 |
| AAACAGGGAGGAUAUACACCAUACAAACCUCUAAACAAAAGACAUGAGGAUCACCCAUGUAGAAGGCCCAACAA [Default title] | 103 | 57.5 |
| GUCCUACAUGAGGAUCACCCAUGUCAGGAUAUGCACCGGUUGCUUUAGACCGGUAAAGGCAGAAGGGACGGGUG [Orzadima] | 19.8 | 23.2 |
| CAAAAACAUGAGGAUCACCCAUGUGAGGAUAUACGAAAGUAGAAGGCACUAAAACAAAACAGAAGGACAAAACA [Meechl Ex1 R2 m3] | 24.6 | 17.9 |
| GAAGAACAUGAGGAUCACCCAUGUCAGGAUAUGCGCAAGGGAAUAAUAACUUGCGGAAGCAGAAGGGACAAGAA [Ex 1 May 50] | 35.9 | 18.9 |
| ACAUCUAGAGGAUAUACAUGGAAAAAAAAAAAAAAAAAACUACAUGAGGAUCACCCAUGUAGAAGGCUAGAUGA [Ex2 Design 192: Random 12] | 35.7 | 40.4 |
| AAAAAACAUGAGGAUCACCCAUGUAAGGAUAUGUAAAAUAAAAGAAAAAUAAAGAAAAGCAGAAGGUACAUGAA [JL wbt mod 14] | 60.5 | 37 |
| AGCUAGUCAGGAUAUACGAAAAUGUCAGAAGCUGUGAAGGGACAUGAGGAUCACCCAUGUAGAAGGGACUAGCA [Diamond 38] | 218 | 69.1 |
| AAGAAGUGAGGAUAUACAUGAGGAUCACCCAUGUAAAAGAAAGAGGGAAAAGAGAAAAGUAGAAGGCACAAGAA [Weserkare-meryamun Ptolemy II Philadelphos] | 33.7 | 35.6 |
